Measurements taken from patent publication US20220162331A1 (CHENGDU CONMED BIOSCIENCES, published 2022).
Where two headings read alike, the source gives them in different places. One block for each binder: values may come before it.

Legend:
[1] = molecular target: T1, human CD73 on Calu6 cells (human, UniProt P21589 27-549); assay: cell-based or functional assay
T1 sequence (looked up): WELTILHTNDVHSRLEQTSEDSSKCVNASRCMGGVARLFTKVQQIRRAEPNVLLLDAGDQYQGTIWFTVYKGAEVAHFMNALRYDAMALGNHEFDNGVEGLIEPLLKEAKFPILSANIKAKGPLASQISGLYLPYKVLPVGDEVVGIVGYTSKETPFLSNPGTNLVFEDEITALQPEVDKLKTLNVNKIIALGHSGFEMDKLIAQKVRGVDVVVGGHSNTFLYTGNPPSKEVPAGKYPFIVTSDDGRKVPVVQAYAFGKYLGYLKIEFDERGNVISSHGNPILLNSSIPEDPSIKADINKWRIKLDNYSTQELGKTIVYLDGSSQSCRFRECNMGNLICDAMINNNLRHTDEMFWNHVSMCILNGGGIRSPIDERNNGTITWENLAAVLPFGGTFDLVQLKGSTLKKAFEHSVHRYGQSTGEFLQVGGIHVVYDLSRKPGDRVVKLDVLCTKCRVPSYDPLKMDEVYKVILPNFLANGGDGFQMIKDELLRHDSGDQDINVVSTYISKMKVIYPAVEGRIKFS

[2] = molecular target: T2, recombinant human CD73 extracellular domain (Trp27-Lys546) with C-terminal 6-histidine tag (human, UniProt P21589 27-547); assay: SPR, Biacore T200, antibody captured on Protein A chip, hCD73 ECD as analyte, 1:1 Langmuir
T2 construct: also called hCD73; hCD73-cHis
T2 sequence: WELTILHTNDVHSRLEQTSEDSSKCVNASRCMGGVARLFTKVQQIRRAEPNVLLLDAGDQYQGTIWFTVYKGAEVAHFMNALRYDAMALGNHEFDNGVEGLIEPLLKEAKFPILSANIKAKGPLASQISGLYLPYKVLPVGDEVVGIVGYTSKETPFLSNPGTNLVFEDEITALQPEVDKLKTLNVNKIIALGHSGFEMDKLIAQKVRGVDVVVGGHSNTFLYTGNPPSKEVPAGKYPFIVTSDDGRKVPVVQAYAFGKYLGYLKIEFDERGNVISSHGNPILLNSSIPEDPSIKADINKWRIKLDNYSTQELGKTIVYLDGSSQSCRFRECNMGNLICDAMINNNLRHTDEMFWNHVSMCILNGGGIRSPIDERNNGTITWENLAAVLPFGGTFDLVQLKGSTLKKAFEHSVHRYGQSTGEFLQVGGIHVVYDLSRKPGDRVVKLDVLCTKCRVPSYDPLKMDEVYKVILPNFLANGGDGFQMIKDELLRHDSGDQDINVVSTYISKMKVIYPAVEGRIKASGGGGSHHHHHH
Description: The affinity of CD73 antibody was determined by plasma surface resonance on Biacore T200. At room temperature, the antibody concentration was diluted to 0.5 μg/mL with 1×HBS-EP buffer (prepared from HBS-EP+Buffer 10×, GE, BR1008-26), the Protein A chip (GE, 29-1275-56) was coated with a flow rate of 10 μL per minute, the capture time was about 40 seconds, and the coated RU value was controlled to be about 100 RU. The recombinant human CD73 extracellular domain protein was diluted to 3 μg/mL with 1×HBS-EP buffer, diluted to two-fold gradient, a total of 6 concentrations, 200 μL of each concentration gradient. The 1×HBS-EP buffer was used as a control, the flow rate was 30 μl/min, the binding time was 120 seconds, and the dissociation time was 600 seconds. The affinity was fitted using Langmuir 1:1 Kinetic theoretical model and analyzed by Biacore T200 Evaluation Software (Table 3).

[3] = molecular target: T1, human CD73 on Calu6 cells; assay: FACS on Calu6 cells
[4] = molecular target: T2, recombinant human CD73 extracellular …; assay: cell-based or functional assay
[5] = molecular target: T1, human CD73 on Calu6 cells; assay: cell-based or functional assay; remark: listed apart in the source
[6] = molecular target: T1, human CD73 on Calu6 cells; assay: cell-based or functional assay; remark: listed apart in the source
[7] = molecular target: T3, human full-length CD73 on hCD73-CHO-1C11 cells (human, UniProt P21589 27-549); assay: FACS on CHO-CD73-1C11 cells
T3 construct: it may be a nucleotide entry; also called CHO-CD73-1C11
T3 sequence: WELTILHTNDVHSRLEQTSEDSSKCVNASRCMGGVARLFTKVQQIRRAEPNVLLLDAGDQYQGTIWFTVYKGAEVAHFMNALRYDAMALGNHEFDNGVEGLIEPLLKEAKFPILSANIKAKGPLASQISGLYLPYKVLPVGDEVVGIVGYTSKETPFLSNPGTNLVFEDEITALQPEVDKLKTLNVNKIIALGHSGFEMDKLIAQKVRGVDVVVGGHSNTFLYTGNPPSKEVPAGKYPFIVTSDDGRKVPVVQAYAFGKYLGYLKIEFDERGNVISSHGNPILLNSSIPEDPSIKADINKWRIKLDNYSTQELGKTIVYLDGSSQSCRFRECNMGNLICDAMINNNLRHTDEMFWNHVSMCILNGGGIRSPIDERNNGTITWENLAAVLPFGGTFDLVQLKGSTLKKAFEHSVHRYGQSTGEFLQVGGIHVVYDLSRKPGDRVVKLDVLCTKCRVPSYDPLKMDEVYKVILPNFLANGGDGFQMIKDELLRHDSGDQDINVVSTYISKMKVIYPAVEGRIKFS

[8] = molecular target: T2, recombinant human CD73 extracellular …; assay: ELISA, plate coated with recombinant CD73 extracellular domain
[9] = molecular target: T4, recombinant cynomolgus monkey CD73 extracellular domain (Trp27-Lys546) (cynomolgus monkey, UniProt P21589 27-547 (human entry)); assay: as above
T4 construct: also called cynoCD73; recombinant monkey CD73 extracellular domain
T4 chain: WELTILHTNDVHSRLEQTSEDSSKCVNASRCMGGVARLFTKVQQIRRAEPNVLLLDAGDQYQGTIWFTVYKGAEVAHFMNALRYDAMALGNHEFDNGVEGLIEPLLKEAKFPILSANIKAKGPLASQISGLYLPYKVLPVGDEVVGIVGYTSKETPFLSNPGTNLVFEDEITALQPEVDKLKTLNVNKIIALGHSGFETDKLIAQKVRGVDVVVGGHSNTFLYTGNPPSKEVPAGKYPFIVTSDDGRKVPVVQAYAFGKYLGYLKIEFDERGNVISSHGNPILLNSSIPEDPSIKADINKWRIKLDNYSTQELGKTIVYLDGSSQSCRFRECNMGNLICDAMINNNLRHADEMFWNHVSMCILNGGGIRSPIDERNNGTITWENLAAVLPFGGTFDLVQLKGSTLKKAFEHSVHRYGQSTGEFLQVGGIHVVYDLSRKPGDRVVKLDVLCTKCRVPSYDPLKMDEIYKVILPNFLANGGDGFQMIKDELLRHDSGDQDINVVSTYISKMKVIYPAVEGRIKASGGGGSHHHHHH

[10] = molecular target: T1, human CD73 on Calu6 cells; assay: cell-based or functional assay; remark: listed apart in the source

- CD73 endocytosis ratio %, 0 minute [1]: 0%
- CD73 endocytosis ratio %, 30 minutes [1]: 28%
- CD73 endocytosis ratio %, 120 minutes [1]: 37%
- CD73 endocytosis ratio %, 240 minutes [1]: 46%
- Kd [2]: 0.257 nM
- koff [2]: 8.48e-05 s⁻¹
- kon [2]: 330000 M⁻¹ s⁻¹
B1: humanized anti-CD73 antibody 6G8 VH-v8/VK-v4 (antibody, V domains shown)
VH: QVTLRESGPALVKPTQTLTLTCTFSGFSLSTSGMGVGWIRQPPGKALEWLAHIWWDEDKYYNPSLKSRLTISKDTSKNQVVLTMTNMDPVDTATYYCARRERWAWFAYWGQGTLVTVSS
VL: EIVMTQSPATLSVSPGERATLSCRASQNVFTNVAWYQQKPGQAPRVLIYSASYRYSGIPARFSGSGSGTEFTLTISSLQSEDFAVYFCQQYNSYPTFGQGTKLEIK
notes: Human IgG1 CH1-CH3 constant region and kappa constant region; also called hu6G8 VHv8 + hu6G8 VkV4

- EC50 [3]: 1.03 nM
- Inhibition of CD73 enzyme activity IC50(nM), Soluble CD73 [4]: 1.03 nM
- Inhibition of CD73 enzyme activity IC50(nM), Calu6 [5]: 1.72 nM
- CD73 endocytosis ratio %, 30 minutes [6]: 17.1%
- CD73 endocytosis ratio %, 60 minutes [6]: 38.5%
- CD73 endocytosis ratio %, 120 minutes [6]: 22.2%
- CD73 endocytosis ratio %, 240 minutes [6]: 35.3%
- CD73 endocytosis ratio %, 480 minutes [6]: 47.7%
- EC50 [7]: 1.91 nM
- EC50 [8]: 0.02 nM
- EC50 [9]: 0.02 nM
- Kd [2]: 0.18 nM
- koff [2]: 0.000111 s⁻¹
- kon [2]: 617000 M⁻¹ s⁻¹
B2: CD73 antibody 6G8 (chimeric) (antibody, V domains shown)
VH: QVTLKESGPGILKPSQTLSLTCSFSGFSLNTSGMGVGWIRQPSGKGLEWLAHIWWDDDKYYNPSLKSQLTISKDTSRNQVFLRIASVDTADTATYYCARRERWAWFAYWGQGTLVTVSA
VL: DIVMTQSQKFMSASVGDRVSVTCKASQNVFTNVAWYQQKPGQSPKVLIYSASYRYSGVPDRFTGSGSGTDFTLTINNVQSEDLAEYFCQQYNSYPTFGSGTKLEIK
notes: Mouse variable regions on human IgG heavy chain constant region and human kappa constant region (chimeric IgG); also called Clone 6G8; 6G8 Chimera

- CD73 endocytosis ratio %, 0 minute [10]: 0%
- CD73 endocytosis ratio %, 30 minutes [10]: 28%
- CD73 endocytosis ratio %, 120 minutes [10]: 31%
- CD73 endocytosis ratio %, 240 minutes [10]: 46%
B3: control antibody 11F11-huG1 (antibody, from another filing, human IgG1, V domains shown)
VH: QVQLVESGGGVVQPGRSLRLSCATSGFTFSNYGMHWVRQAPGKGLEWVAVILYDGSNKYYPDSVKGRFTISRDNSKNTLYLQMNSLRAEDTAVYYCARGGSSWYPDSFDIWGQGTMVTVSS
VL: DIQMTQSPSSLSASVGDRVTITCRASQGISSWLAWYQQKPEKAPKSLIYAASSLQSGVPSRFSGSGSGTDFTLTISSLQPEDFATYYCQQYNSYPLTFGGGTKVEIKR
